These results are taken from patent US20210087556.

In data set [1] the target is GST-fusion SMAD3 protein (Sigma-Aldrich Co. LLC.) (UniProt P84022).
Data set [2] concerns the target FLAG-tag-labeled human SMAD3, expressed in LL29 cells from expression vector pEZ-M11 Flag-hSmad3 (UniProt P84022).

Chain of FLAG-tag-labeled human SMAD3, expressed in LL29 cells from expression vector pEZ-M11 Flag-hSmad3 (P84022 whole entry, looked up): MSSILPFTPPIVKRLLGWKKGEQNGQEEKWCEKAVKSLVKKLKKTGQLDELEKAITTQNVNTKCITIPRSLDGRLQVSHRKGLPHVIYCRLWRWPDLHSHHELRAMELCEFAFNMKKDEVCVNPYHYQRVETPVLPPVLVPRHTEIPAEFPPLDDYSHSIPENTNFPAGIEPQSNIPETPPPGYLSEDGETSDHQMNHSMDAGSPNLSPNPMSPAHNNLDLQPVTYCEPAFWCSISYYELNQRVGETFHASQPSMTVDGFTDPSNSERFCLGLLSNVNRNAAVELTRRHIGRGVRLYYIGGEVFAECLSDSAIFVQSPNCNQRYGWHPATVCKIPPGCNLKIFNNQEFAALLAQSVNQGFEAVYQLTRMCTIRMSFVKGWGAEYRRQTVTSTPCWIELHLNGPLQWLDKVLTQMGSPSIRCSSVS
Chain of GST-fusion SMAD3 protein (Sigma-Aldrich Co. LLC.) (P84022 whole entry, looked up, the tested form may be a part): as the sequence (P84022 whole entry, looked up) above
Chain of His-fusion NEK6 protein (Eurofins Scientific SE) (chain, as listed by the source): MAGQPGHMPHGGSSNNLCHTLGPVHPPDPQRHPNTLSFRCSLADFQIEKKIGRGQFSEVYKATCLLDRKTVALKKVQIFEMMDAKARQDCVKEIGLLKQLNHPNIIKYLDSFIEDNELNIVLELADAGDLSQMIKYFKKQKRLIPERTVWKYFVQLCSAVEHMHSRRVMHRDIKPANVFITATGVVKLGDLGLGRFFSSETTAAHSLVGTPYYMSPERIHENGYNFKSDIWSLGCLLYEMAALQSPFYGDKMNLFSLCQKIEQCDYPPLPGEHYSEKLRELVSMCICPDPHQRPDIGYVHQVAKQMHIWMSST

In the case of “His-fusion NEK6 protein (Eurofins Scientific SE)”, in data set [1], the “amount of phosphorylated SMAD3 (Western blot after in vitro kinase reaction with purified proteins)” value is “By using NEK6 protein, the amount of phosphorylated SMAD3 was elevated”. As to “human NEK6 protein (NIMA-related serine/threonine kinase 6), expressed in LL29 cells from expression vector pEZ-M02 Nek6”, the “amount of phosphorylated SMAD3 protein (Western blot of anti-FLAG coimmunoprecipitate)” value in data set [2] is reported as “transfection of a human NEK6 expression vector caused the amount of phosphorylated SMAD3 protein to be elevated”.
